This test has as its target Lon protease of E. coli (endogenous) (E. coli) (UniProt P0A9M0). The test is described as follows: cell-based or functional assay.
UniProt P0A9M0, sequence (P0A9M0 2-784 limits assumed): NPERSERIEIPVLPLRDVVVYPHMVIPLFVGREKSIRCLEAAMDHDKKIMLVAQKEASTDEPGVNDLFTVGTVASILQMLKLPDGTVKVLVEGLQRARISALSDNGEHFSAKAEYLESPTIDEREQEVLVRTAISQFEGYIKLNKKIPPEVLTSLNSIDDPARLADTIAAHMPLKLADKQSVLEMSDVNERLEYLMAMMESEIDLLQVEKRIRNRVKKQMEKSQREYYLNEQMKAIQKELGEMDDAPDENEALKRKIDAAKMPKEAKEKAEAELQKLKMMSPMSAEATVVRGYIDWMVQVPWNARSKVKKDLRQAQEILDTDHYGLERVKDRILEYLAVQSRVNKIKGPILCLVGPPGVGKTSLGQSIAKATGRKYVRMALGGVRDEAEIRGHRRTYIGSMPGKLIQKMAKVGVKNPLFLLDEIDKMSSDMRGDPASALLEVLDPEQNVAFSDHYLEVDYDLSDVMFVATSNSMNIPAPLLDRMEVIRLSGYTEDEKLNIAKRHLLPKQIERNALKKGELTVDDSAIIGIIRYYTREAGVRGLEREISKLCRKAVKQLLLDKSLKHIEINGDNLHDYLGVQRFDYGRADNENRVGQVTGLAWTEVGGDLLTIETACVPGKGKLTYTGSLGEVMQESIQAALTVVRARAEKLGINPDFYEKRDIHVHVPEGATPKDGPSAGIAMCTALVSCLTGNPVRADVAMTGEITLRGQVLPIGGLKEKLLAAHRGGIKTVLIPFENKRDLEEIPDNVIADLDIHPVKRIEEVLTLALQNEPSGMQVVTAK

With “T7 phage gene product (Gp) 4.5 expressed in E. coli from a plasmid (peptide)”, the fold decrease in persistence: fraction of surviving E. coli cells following 5 hr exposure to ampicillin amounted to 5 fold.

These data come from US20140178353A1.
